The record followed here is patent US20220348667A1 (LUXEMBOURG INSTITUTE OF HEALTH LIH, published 2022).

For assay [1], the target named is murine ACKR2 stably overexpressed on HEK293T cells (HEK.mACKR2) (mouse) (UniProt O08707). In words: flow cytometry binding competition on HEK.mACKR2 cells, CCL5-AF647 (30 nM) as competitor.
Assay [2] addresses T1, human ACKR2 stably expressed on HEK293T cells (HEK.ACKR2) (human, UniProt O00590 1-384).
T1 construct: whole, on cells; also called hACKR2; HEK.hACKR2
T1 sequence (looked up): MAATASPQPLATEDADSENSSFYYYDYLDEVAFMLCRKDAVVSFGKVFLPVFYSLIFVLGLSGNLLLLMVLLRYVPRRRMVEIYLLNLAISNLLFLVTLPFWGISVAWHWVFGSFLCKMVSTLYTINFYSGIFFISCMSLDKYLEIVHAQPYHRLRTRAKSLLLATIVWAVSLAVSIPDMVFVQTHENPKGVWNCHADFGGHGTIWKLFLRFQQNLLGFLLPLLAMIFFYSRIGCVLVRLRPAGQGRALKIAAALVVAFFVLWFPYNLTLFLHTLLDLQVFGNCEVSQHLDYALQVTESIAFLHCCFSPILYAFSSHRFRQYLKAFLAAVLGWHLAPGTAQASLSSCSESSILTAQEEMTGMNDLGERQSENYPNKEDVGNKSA
The assay can be described thus: flow cytometry, displacement of CXCL10-Cy5 from HEK.ACKR2 cells by unlabelled chemokine (50 nM). On the procedure: HEK293T and HEK-ACKR2 cells were incubated with CXCL10-Cy5 at indicated concentrations for 45 minutes at 37° C., then washed twice with FACS buffer (PBS, 1% BSA, 0.1% NaN₃). Dead cells were excluded using Zombie Green viability dye (BioLegend). ACKR2-negative HEK293T cells were used to evaluate non-specific binding of CXCL10-Cy5. For binding competition with unlabelled chemokines (50 nM), the signal obtained for CXCL10-Cy5 in the absence of unlabelled chemokines was used to define 100% binding. Ligand binding was quantified by mean fluorescence intensity on a BD FACS Fortessa cytometer (BD Biosciences).
Background: Flow cytometry measures light scatter and fluorescence of single cells or particles in a stream.

Chain of murine ACKR2 stably overexpressed on HEK293T cells (HEK.mACKR2) (mouse) (O08707 whole entry): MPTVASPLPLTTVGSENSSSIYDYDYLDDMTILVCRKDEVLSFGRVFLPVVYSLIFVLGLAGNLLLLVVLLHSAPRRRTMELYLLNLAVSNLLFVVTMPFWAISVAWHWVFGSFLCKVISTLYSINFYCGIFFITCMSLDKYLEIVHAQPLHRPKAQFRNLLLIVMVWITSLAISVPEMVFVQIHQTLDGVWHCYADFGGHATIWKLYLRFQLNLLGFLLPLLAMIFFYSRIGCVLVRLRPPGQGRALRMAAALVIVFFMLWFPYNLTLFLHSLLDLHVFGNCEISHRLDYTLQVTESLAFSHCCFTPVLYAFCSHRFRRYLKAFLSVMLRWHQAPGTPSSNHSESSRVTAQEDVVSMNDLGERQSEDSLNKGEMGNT

Consider “polyclonal Goat anti-mACKR2 (ab1656, Abcam) (antibody)”, for which, in assay [1], the % displacement of CCL5-AF647 at 50 µg/ml antibody was above 80%.

B1: CCL5 (unlabelled, PeproTech) (ligand, human, UniProt P13501 24-91, looked up)
chain: SPYSSDTTPCCFAYIARPLPRAHIKEYFYTSGKCSNPAVVFVTRKNRQVCANPEKKWVREYINSLEMS
Take B1: the binding result in assay [2] was “binds”.
